Experimental data taken from the nanobody polyreactivity screen of Harvey et al. (2022).

Experiment: yeast display, Sf9 membrane polyspecificity reagent, FACS + sequencing; frameworks hold sequencing errors
Summary of the method: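 Nanobodies came from a synthetic yeast display library in Saccharomyces cerevisiae BJ5465, induced with galactose for 36–48 hours and stained for 1 hour at 4 °C with 10% biotinylated, detergent-solubilized Sf9 membrane reagent. Cells were enriched on streptavidin microbeads and then FACS-sorted, with low and high (top ~1%) gates set on anti-HA fluorescence for expression and streptavidin fluorescence for reagent binding. Each polyreactivity label reflects the gate a clone came from. Genes were amplified by colony PCR, sequenced by MiSeq 2 × 250 and filtered by CDR length.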

Question: With “QVQLVESWGGLVQAGGSLRLSCAASGRIFALYAMGWYRKAPGKERELVASINSRVGSTNYADSVKGRFTISRDNAKNTVYLQMNSLKPEDTAVYYCNARFVYAYQRYYWGQGTQVTVSS” as the sequence, how does the “polyreactivity (PSR sort gate)” value read?
Answer: The value was “high polyreactivity”.

Question: With “QVQLLESGGGLVQAGGSLRLTCAASGSTFSPNAMGWYRQAPGKERELVAAITYRGANTYYADSVKGRFTISRDNAKITVYLQMNSLKPEDTAVYYCDAEYAYHHVGFGYWGQGTQVTVSS” as the sequence, how does the “polyreactivity (PSR sort gate)” value read?
Answer: Its value is “low polyreactivity”.

Question: For “QVQLVESGGGLVQAGGSLRLSCAASGRTFSKYAMGWDRPAPGKERELVAGISRSGGSTYYADSVKGRFTISRDNAKNTVYLQMNSLKPEDTAVYYCAKRSVGGTGYYWGQGTQVTVSS”, which “polyreactivity (PSR sort gate)” value is on record?
Answer: The value was “high polyreactivity”.

Question: With “QVHLVETGGGLVHAGGSLRLSCAASGFIFGVNAMGWYRQAPGKERELDAAITRNGGSTYYADSVKGRFTISRDYAKNTVYLQMNSLKPEDTAVYYCAKYVRRAPSSIDVDYWGQGTQVTVSS” as the sequence, how does the “polyreactivity (PSR sort gate)” value read?
Answer: Its value is “high polyreactivity”.

Question: For “QFQLVESGGGLVQARGSLRLSCAPSGSTFGYYTMGWYRQAPGKERELVAAISWSGGSTYYADSVKGRFTISRDNAKNTVYLQMNSLKPEDTAVYYCAALGYTYKYYSYYWGQGTQVTVSS”, which “polyreactivity (PSR sort gate)” value is on record?
Answer: The value was “high polyreactivity”.

Question: For “QVQHVDSGGGLVQAGGSLRLSCAASGSTFFTYAMGWYRQEPGKERELVAAISQSSVRTHYADSVKGRFTISRDNAKNTVYLQMNSLKPEDTAVYYCAARVYGRQYPGAPYYYWGQGTQVTVSS”, which “polyreactivity (PSR sort gate)” value is on record?
Answer: The value was “high polyreactivity”.

Question: For “QVQLVESGGGLVQAGGSLRLSCAASGSTFSYNTMGWYRQAPGKERELVATIDFNGGSTYYADSVKGRFTISRDNAKNTVYLQMNSLKPEDTAVYYCNADRYPYWGYDYWGQGTQVTVSS”, which “polyreactivity (PSR sort gate)” value is on record?
Answer: Its value is “low polyreactivity”.

Question: For “QVQLVESGGGLVQAGGSLRLSCAASGLIFIKYTMGWYRQAPGKERELVAVISGSGGSTYYADSVKGRFTISRDNAKNTVYLQMNSLKPEDTAVYYCAARSYALGYGGGYWGQGTQVTVSS”, which “polyreactivity (PSR sort gate)” value is on record?
Answer: Its value is “high polyreactivity”.

Question: Which “polyreactivity (PSR sort gate)” value does the source give for “QVQHVESGGGLVQAGGSLRLSCAASGRIFGVYVMGWYRQAPGKERELVAAITGGGSTYYADSVKGRFTISRDNAKNTVYLQMNSLKPEDTAVYYCAARYLVTYGHQQRYYYWGQGTQVTVSS” here?
Answer: Its value is “high polyreactivity”.

Question: Which “polyreactivity (PSR sort gate)” value does the source give for “QVQLVESGGGLVQAGGSLRLSCAASGRTFYGYAMGWYRQAPGKERELVASISWSTGSTHYADSVKGRFTISRDNAKNTVYLQMNSLKPEDTAVYYCAAPFWRDSYVQIDYDYWGQGTQVTVSS” here?
Answer: The value was “low polyreactivity”.

Question: For “QVHLQESGGGLVQAGGSLRLSCAASGTIFRFRYMGWHRQAPGKERELVAGINGGTTTYYADSVIGRFTISRDNAKNTVYLQMNSLKPDDTAVYNCAAGASRLTYYDFWGQGTQVTVSS”, which “polyreactivity (PSR sort gate)” value is on record?
Answer: Its value is “low polyreactivity”.

Question: For “RVQLVESGGGLVQAGGRLRLSCAASRFTFIVNPMGWYRQAPGKERELVAAISWNGGSTYYADSVKGRFTISRDNAKNTVYLQMNSLKPEDTAVYYCAVLYRSEYDWGQGTQVTVSS”, which “polyreactivity (PSR sort gate)” value is on record?
Answer: The value was “low polyreactivity”.

Question: With “QVQLVETGGGLVQAGGSLRLSCADSGSIYQKNAMGWYRQPPGKERELVAAITSGGTTYYADSVKGRFTISRDNAKNTVYLQMYSLKPEDTAVYYCAKYHCRLSFSRYPYDYWGQGTQVTVSS” as the sequence, how does the “polyreactivity (PSR sort gate)” value read?
Answer: The value was “high polyreactivity”.

Question: Which “polyreactivity (PSR sort gate)” value does the source give for “QVQLVESGGGLVQAGGSLRLSCAASGYIFGYNAMGWYRQAPGKERELVAAINYSGTRTYYADSVKGRFTISRDNAKNTVYLQKNSLKPEDTAVYYCNAVGQLQYVSSDDYWGQGTQVTVSS” here?
Answer: Its value is “high polyreactivity”.

Question: Which “polyreactivity (PSR sort gate)” value does the source give for “QVQLVESGGGLVQAGGSLRLSCAASGIIFTDNAMGWYRQAPGKARELVATISWSTDNTYYADSVKGRFTISRDNAKNTVYLQMNSLKPEDTAVYYCAAGWQIIQGSQYDYWGQGTQVTVSS” here?
Answer: The value was “low polyreactivity”.

Question: For “QVQLVESGGGLVQAGGSLRLSCAASGITFEVNAMGWYRQAPGKERELVARISRDGSTNYADSVKGRFTISRDNAKNTVYLQRNSLKPEDTAVYYCNAKLYRSFDYWGQGTQVTVSS”, which “polyreactivity (PSR sort gate)” value is on record?
Answer: The value was “low polyreactivity”.

Question: With “QVQLVESGGVLVQAGGSLRLSCAASGYIFEGNAMGWYRQAPGKERDFVAAITKRGGSTYYADSVKGRFTISRDNAKNTVYLQMNSLKPEDTAVYYCAADRSYPRAGRYDYWGQVTQVTVSS” as the sequence, how does the “polyreactivity (PSR sort gate)” value read?
Answer: Its value is “low polyreactivity”.

Question: Which “polyreactivity (PSR sort gate)” value does the source give for “QVQLVESGGGLVQAGGSLRLSCAASGSIFNYNAMGWYRQAPGKERELVAAISSGGSTNYADSVKGRFTISRDNAKNTVYLQMNSLKPEDTAVYYCAKRGKQYRKMNYWGQGTQVTVSS” here?
Answer: Its value is “high polyreactivity”.

Question: With “QVQLVESGGGLVQAGGSLRLSCAASGSIFSFNAMGWYRQAPGKERELVAVITQRGGSTYYADSVKGRFTISRDNAKNTVYLQMNSLKPEDTAVYYCAARTPRGYYYWGQGTQVTVSS” as the sequence, how does the “polyreactivity (PSR sort gate)” value read?
Answer: Its value is “high polyreactivity”.

Question: Which “polyreactivity (PSR sort gate)” value does the source give for “QVQLVESGGGLVQAGGSLRLSCAASGIIFYWYAMGWYRQAPGKERELVAAINSGGRTNYADSVKGRFTISRDNAKNTVYLQMNSLKPEDTAVYYCAARANPYVLKYYYWGQGTQVTVSS” here?
Answer: Its value is “high polyreactivity”.
